This note sets out measurements from patent publication US7148329 (KATHOLIEKE UNIVERSITEIT NIJMEGEN, dated 2006).

For assay [1], the target named is DC-Specific ICAM-3 Grabbing Non-integrin (DC-SIGN) (human) (UniProt Q9NNX6). Briefly: cell-based or functional assay.
The target is the same in assay [2]. Briefly: flow cytometry on COS7 cells transfected with DC-SIGN cDNA. In general terms: A flow cytometer gives signals particle by particle.
Assay [3] has the same target. The assay can be described thus: flow cytometry on DC day 7; meaning of the grade from the table's footnote.
Assay [4] has as its target T1, DC-Specific ICAM-3 Grabbing Non-integrin (DC-SIGN) (human, UniProt Q9NNX6 1-404).
T1 construct: Type II membrane protein of 404 aa, on monocyte-derived DC or on COS7 cells transfected with pRc/CMV-DC-SIGN; in immunoprecipitation and pull-down it came from DC lysate; also called C-type lectin on dendritic cells
T1 sequence: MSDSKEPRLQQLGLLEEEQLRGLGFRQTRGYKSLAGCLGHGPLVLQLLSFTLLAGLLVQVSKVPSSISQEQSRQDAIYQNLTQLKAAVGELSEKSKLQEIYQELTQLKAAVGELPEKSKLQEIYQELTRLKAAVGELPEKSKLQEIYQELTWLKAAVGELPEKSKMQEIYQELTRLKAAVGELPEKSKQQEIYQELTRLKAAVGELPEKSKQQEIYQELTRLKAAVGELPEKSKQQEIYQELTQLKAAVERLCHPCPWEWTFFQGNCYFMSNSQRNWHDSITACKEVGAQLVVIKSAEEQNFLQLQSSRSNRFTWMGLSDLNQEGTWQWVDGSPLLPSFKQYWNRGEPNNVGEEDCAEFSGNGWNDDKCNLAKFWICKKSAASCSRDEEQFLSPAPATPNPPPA
Briefly: binding to K562 transfectants (FIG. 8).

For the molecule AZN-D2 (antibody), in assay [1], the DC-T cell clustering (percentage of DC which have bound fluorescent T cells) was found to be 50%; the HIV-1 replication (p24 Gag) in DC-T cell co-culture, DC pre-incubated with antibody before the HIV-1 pulse is above 75%; the T-lymphocyte proliferation induced by allogeneic DC ([3H]methyl-thymidine uptake) is above 75%.

Regarding AZN-D1 (antibody), the percent of transfected cells stained in assay [2] is 30%. Besides, in assay [1], the DC-T cell clustering (percentage of DC which have bound fluorescent T cells) was 50%; the HIV-1 replication (p24 Gag) in DC-T cell co-culture, DC pre-incubated with antibody before the HIV-1 pulse is above 75%; the T-lymphocyte proliferation induced by allogeneic DC ([3H]methyl-thymidine uptake) is above 75%. The mean fluorescence in assay [3] is above 400.

B1: ICAM-2 expressed on K562 cells (ligand, UniProt P13598 25-275, looked up)
chain: KVFEVHVRPKKLAVEPKGSLEVNCSTTCNQPEVGGLETSLDKILLDEQAQWKHYLVSNISHDTVLQCHFTCSGKQESMNSNVSVYQPPRQVILTLQPTLVAVGKSFTIECRVPTVEPLDSLTLFLFRGNETLHYETFGKAAPAPQEATATFNSTADREDGHRNFSCLAVLDLMSRGGNIFHKHSAPKMLEIYEPVSDSQMVIIVTVVSVLLSLFVTSVLLCFIFGQHLRQQRMGTYGVRAAWRRLPQAFRP
notes: whole, on cells
For the molecule B1, the binding result in assay [4] is “binds”.
